Molecular target: ecto-domain of integrin α5β1-Fc fusion protein
Test: SPR

B1: Fn + FnBPA-10 (FnBPA-10-bound Fn) (complex)
chain 1: not shown
chain 2: not shown
chain 3: KYEHGGNIIDIDFDSVPHIHGFNKHTEIIEEDTNKDKP
B1 showed a Kd of 260 nM, a ka1 (first step, bivalent analyte model) of 61000 M⁻¹ s⁻¹ and a ka2 (second step, bivalent analyte model) of 1.3e-05 RU^-1s^-1. For the same binder, the kd1 (first step, bivalent analyte model) was 0.015 s⁻¹ and the kd2 (second step, bivalent analyte model) was 0.001 s⁻¹.

— paper PMC4951027
